This is an account of results in patent US20060263381A1 (INSTITUT GUSTAVE ROUSSY, published 2006).

A value given as a limit tells only on which side of the number the result lay.

The labels stand for the following.
B1: p248G9 (YLEYRQVPG) (peptide)
peptide: YLEYRQVPG
notes: Native peptide of MAGE-A2, -A3, -A4, -A6, -A10, -A12
B2: p248V9 (YLEYRQVPV) (peptide)
peptide: YLEYRQVPV
notes: Variant of p248G9 and p248D9 with valine at P9
B3: p174Y1V10 (YLGLSYDGLV) (peptide)
peptide: YLGLSYDGLV
notes: Variant of p174 with tyrosine at P1 and valine at P10
B4: p174 (CLGLSYDGLL) (peptide)
peptide: CLGLSYDGLL
notes: Native peptide of MAGE-A1, -A2, -A3, -A4, -A6, -A12; It is named by the position of its first residue in MAGE-A1
B5: p911Y1V9 (YVWELMTFGV) (peptide)
peptide: YVWELMTFGV
notes: It is a 10-mer, although the label says V9

The target of one assay is T1, HLA-A*0201 molecule (human).
T1 construct: MHC class I molecule on T2 cells, to which the test peptides are added from outside
Nature of the assay: T2 cell HLA-A*0201 stabilisation, flow cytometry with BB7.2.
Experimental: (§1) The cells are then analyzed by flow cytometry. […] The mean RA for each peptide is determined from at least three independent experiments. In all the experiments, 20& of the maximum fluorescence was obtained for 1 to 3 μM of the reference peptide.
Consider B1, for which the “RA (relative affinity)” value was > 27 ratio to reference peptide HIVpol 589. On to B2, for which the “RA (relative affinity)” value was 1.8 ratio to reference peptide HIVpol 589. As for YLEYRQVPD (Native peptide of MAGE-A1) [p248D9 (YLEYRQVPD)], the “RA (relative affinity)” value is 22.5 ratio to reference peptide HIVpol 589. Turning to YLFLWGPRA (Variant of p262 with leucine at P2) [p262L2 (YLFLWGPRA)], the “RA (relative affinity)” value is 0.2 ratio to reference peptide HIVpol 589. For the molecule YLGLSYDGLL (Variant of p174 with tyrosine at P1) [p174Y1 (YLGLSYDGLL)], the “RA (relative affinity)” value was 13 ratio to reference peptide HIVpol 589.

For B3, the “RA (relative affinity)” value was 2.5 ratio to reference peptide HIVpol 589. With B4, the “RA (relative affinity)” value was 41 ratio to reference peptide HIVpol 589.

The target of another assay is T1, HLA-A*0201 molecule. The assay is described as above. This is another data set of the same source.
Experimental: as §1
For B5, the “RA (relative affinity)” value was 2.03 ratio to reference peptide HIVpol 589.

For a further assay, the target named is T1, HLA-A*0201 molecule. Nature of the assay: T2 cells loaded with 100 µM peptide, Brefeldin A, flow cytometry with BB7.2 at 0-8 h. Background: In flow cytometry, cells or beads pass a laser one at a time.
In the case of B1, the “DC50 (time for loss of 50% of the complexes)” value is < 2 h. Consider B2, for which the “DC50 (time for loss of 50% of the complexes)” value amounted to 4 h.

In the case of YLEYRQVPD (Native peptide of MAGE-A1) [p248D9 (YLEYRQVPD)], the “DC50 (time for loss of 50% of the complexes)” value was < 2 h. With YLFLWGPRA (Variant of p262 with leucine at P2) [p262L2 (YLFLWGPRA)], the “DC50 (time for loss of 50% of the complexes)” value is 6 h. As for YLGLSYDGLL (Variant of p174 with tyrosine at P1) [p174Y1 (YLGLSYDGLL)], the “DC50 (time for loss of 50% of the complexes)” value was < 2 h. B3: the “DC50 (time for loss of 50% of the complexes)” value was < 2 h. On to B4, for which the “DC50 (time for loss of 50% of the complexes)” value is < 2 h.
